Measurements from US20220251174A1 (published 2022).

Experiments:
[1] = biological target: SARS-CoV-2 Spike RBD (tagless) (UniProt P0DTC2 319-541); experiment: BLI
SARS-CoV-2 Spike () = experiment: BLI

| Binder | IC50 [1] [nM] | Kd (SARS-CoV-2 Spike ()) [nM] |
| --- | --- | --- |
| 23-H7 Fab (Fab, V domains shown) VH: QVQLVQSGAEVKLPGASMKVSCKASGYTFSTYYMHWVRQAPGQGPEWMGVIDPSGGTTSYAQKFHDRIAMTRDTSTSTAYLELSSLRSEDMAVYYCARGGFADAVDYWGQGTLVTVSS VL: NFMLTQPHSVSGSPGKTVTISCTRNSGSIAGNYVQWYQQRPGSAPTTVIYEDNQRPSGVPDRFSGSIDSSSNSASLTISGLKTEDEADYYCQSYDASHLHVIFGGGTKVTVL | 4.6 |  |
| 22-E7 (full-length human IgG1) (antibody, V domains shown) VH: QVQLVESGGGVVQPGTSLRLSCAASGFTFNNYPMFWVRQAPGKGLEWLALISYDGNHKVYADSVKGRFTISRDNAKNTLYLQMHSLRAEDTALYYCASDLSGAEDSWGQGTLVTVSS VL: QSALTQPASVSGSPGQSITISCTGTSSDVGGYNYVSWYQQHPGKAPKLLIYEVSNRPSGVSNRFSGSKSGNTASLTISGLQAEDEADYYCSSYTSSSTWVFGGGTKLTVL |  | 248 |
